Measurements as given in patent US20060084596A1 (UNIVERSITY OF SOUTH FLORIDA, published 2006).
Where “and” joins values, the source holds several entries; their conditions need not be identical. Equal values may be shown once. Positions of bridges follow the written chain, without caps; N, C: chain ends. Non-standard residues stand in square brackets, D forms with d. No end group written: not given here. d2Nal = N[C@H](Cc1ccc2ccccc2c1)C(=O)O; dAbu = CC[C@@H](N)C(=O)O

Columns and labels:
Assay in all cases: cell-based or functional assay
[1] = biological target: insulin-like growth factor-1 (IGF-1) (UniProt P05019 49-118)
Sequence of insulin-like growth factor-1 (IGF-1) (P05019 49-118 limits assumed): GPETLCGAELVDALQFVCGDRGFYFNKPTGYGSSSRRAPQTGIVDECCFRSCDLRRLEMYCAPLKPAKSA

[2] = biological target: platelet derived growth factor PDGF-BB (UniProt P01127 82-190)
Sequence of platelet derived growth factor PDGF-BB (P01127 82-190 limits assumed): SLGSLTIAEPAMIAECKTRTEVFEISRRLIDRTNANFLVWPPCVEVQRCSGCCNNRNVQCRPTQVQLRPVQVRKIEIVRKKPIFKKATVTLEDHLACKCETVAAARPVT

[3] = biological target: acidic fibroblast growth factor (aFGF) (UniProt P05230 16-155, limits assumed)
Sequence of acidic fibroblast growth factor (aFGF) (P05230 16-155 limits assumed): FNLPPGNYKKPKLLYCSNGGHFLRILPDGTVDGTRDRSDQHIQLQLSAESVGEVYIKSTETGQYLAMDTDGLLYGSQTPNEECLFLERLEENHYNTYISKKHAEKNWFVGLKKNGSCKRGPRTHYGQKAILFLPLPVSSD

B1: GFB-121 (designed binder)
peptide: [dAbu]DGD
modifications: linker N-C via 3‑aminomethyl‑5‑aminobenzamide; also: four loops joined to But-Calix calix[4]arene scaffold
- % Inhibition at 100 µM, IGF1R-Y-P [1]: 33.8%
- % Inhibition at 100 µM, p42 [1]: 28.3%
- % Inhibition at 100 µM, p44 [1]: 62.1%
- IC50, PDGFR-Y-P [2]: 5.6 µM
- IC50, p42/Erk2 [2]: 8.5 µM
- (IC50) Inhibition, p42 [3]: 8.7 µM per head; likely %
- (IC50) Inhibition, p44 [3]: 8.9 µM per head; likely %

B2: GFB-117 (designed binder)
peptide: GDND
modifications: linker N-C via 3‑aminomethyl‑5‑aminobenzamide; also: four loops on But-Calix scaffold
- % Inhibition at 100 µM, IGF1R-Y-P [1]: 4.9%
- % Inhibition at 100 µM, p42 [1]: 17.1%
- % Inhibition at 100 µM, p44 [1]: 61.5%
- IC50, PDGFR-Y-P [2]: 5.8 µM
- IC50, p42/Erk2 [2]: 36 µM
- (IC50) Inhibition, p42 [3]: 63.4 µM per head; likely % and 67.6 µM per head; likely %
- (IC50) Inhibition, p44 [3]: 80.8 µM per head; likely % and 84.3 µM per head; likely %

B3: GFB-136 (designed binder)
peptide 1: GDDD
peptide 2: GDGY
modifications: also: 3 GDDD loops and 1 GDGY loop on But-Calix scaffold, linker to a chain's N/C-terminus via 3-aminomethyl-5-aminobenzamide
- % Inhibition at 100 µM, IGF1R-Y-P [1]: 40.6%
- % Inhibition at 100 µM, p42 [1]: 15%
- % Inhibition at 100 µM, p44 [1]: 59.5%
- IC50, PDGFR-Y-P [2]: 3 µM
- IC50, p42/Erk2: p42 [2]: 25 µM
- IC50, p42/Erk2: p44 [2]: 24 µM
- (IC50) Inhibition, p42 [3]: 73.1 µM per head; likely %
- (IC50) Inhibition, p44 [3]: 84.5 µM per head; likely %

B4: GFB-110 (designed binder)
peptide: GDAD
modifications: linker N-C via 3‑aminomethyl‑5‑aminobenzamide; also: four loops on But-Calix calix[4]arene scaffold
- IC50, PDGFR-Y-P [2]: 1.7 µM
- IC50, p42/Erk2 [2]: 7 µM
- (IC50) Inhibition, p42 [3]: 76.1 µM per head; likely % and 93 µM per head; likely %
- (IC50) Inhibition, p44 [3]: 85.2 µM per head; likely % and 98.9 µM per head; likely %

B5: GFB-128 (designed binder)
peptide: GDGY
modifications: linker N-C via 3‑aminomethyl‑5‑aminobenzamide; also: loops on DPM-2 scaffold
- % Inhibition at 100 µM, IGF1R-Y-P [1]: -12%
- % Inhibition at 100 µM, p42 [1]: -6.1%
- % Inhibition at 100 µM, p44 [1]: 38.2%
- IC50, p42/Erk2 [2]: > 50 µM
- (IC50) Inhibition, p44 [3]: 43.3 µM per head; likely %

B6: GFB-118 (designed binder)
peptide: [d2Nal]DGD
modifications: linker N-C via 3‑aminomethyl‑5‑aminobenzamide; also: four loops joined to But-Calix calix[4]arene scaffold
- % Inhibition at 100 µM, IGF1R-Y-P [1]: 1.5%
- % Inhibition at 100 µM, p42 [1]: 16.4%
- % Inhibition at 100 µM, p44 [1]: 55.2%
- IC50, PDGFR-Y-P [2]: 0.7 µM
- IC50, p42/Erk2 [2]: 1.2 µM
- (IC50) Inhibition, p42 [3]: 20.6 µM per head; likely %
- (IC50) Inhibition, p44 [3]: 30.5 µM per head; likely %

B7: GFB-130 (designed binder)
peptide: GDDY
modifications: linker N-C via 3‑aminomethyl‑5‑aminobenzamide; also: loops on DPM-2 scaffold
- (IC50) Inhibition, p42 [3]: 78.9 µM per head; likely %
- (IC50) Inhibition, p44 [3]: 78.9 µM per head; likely %

B8: GFB-122 (designed binder)
peptide: GDDY
modifications: linker N-C via 3‑aminomethyl‑5‑aminobenzamide; also: four loops on But-Calix calix[4]arene scaffold
- IC50, PDGFR-Y-P [2]: 1.7 µM
- IC50, p42/Erk2 [2]: 19 µM
- (IC50) Inhibition, p42 [3]: 57.3 µM per head; likely %
- (IC50) Inhibition, p44 [3]: 71.6 µM per head; likely %

B9: GFB-119 (designed binder)
peptide: PDGD
modifications: linker N-C via 3‑aminomethyl‑5‑aminobenzamide; also: four loops on But-Calix scaffold
- % Inhibition at 100 µM, IGF1R-Y-P [1]: 16.7%
- % Inhibition at 100 µM, p42 [1]: 29.7%
- % Inhibition at 100 µM, p44 [1]: 66.2%
- IC50, PDGFR-Y-P [2]: 20 µM
- IC50, p42/Erk2 [2]: 32 µM
- (IC50) Inhibition, p42 [3]: 62.6 µM per head; likely % and 72.1 µM per head; likely % and 47.8 µM per head; likely %
- (IC50) Inhibition, p42 (mean) [3]: 60.8 µM per head; likely %
- (IC50) Inhibition, p44 [3]: 78.9 µM per head; likely % and 81.7 µM per head; likely % and 58.1 µM per head; likely %
- (IC50) Inhibition, p44 (mean) [3]: 72.9 µM per head; likely %

B10: GFB-132 (designed binder)
peptide 1: GDGY
peptide 2: GDDG
modifications: also: 3 GDGY loops and 1 GDDG loop on But-Calix scaffold, linker to a chain's N/C-terminus via 3-aminomethyl-5-aminobenzamide
- IC50, PDGFR-Y-P [2]: 0.4 µM
- IC50, p42/Erk2: p42 [2]: 2.9 µM
- (IC50) Inhibition, p44 [3]: 50.2 µM per head; likely %

B11: GFB-104 (designed binder)
peptide: GDGD
modifications: linker N-C via 3‑aminomethyl‑5‑aminobenzamide; also: four loops on O3-Calix calix[4]arene scaffold
- % Inhibition at 100 µM, IGF1R-Y-P [1]: -28.4%

B12: GFB-133 (designed binder)
peptide: GDGY
modifications: linker N-C via 3‑aminomethyl‑5‑aminobenzamide; also: 3 GDGY loops on But-Calix scaffold, CO2H at fourth position
- IC50, p42/Erk2: p42 [2]: 3.2 µM
- IC50, p42/Erk2: p44 [2]: 3 µM
- (IC50) Inhibition, p44 [3]: 101 µM per head; likely %

B13: GFB-135 (designed binder)
peptide 1: GDGY
peptide 2: GDDD
modifications: also: 3 GDGY loops and 1 GDDD loop on But-Calix scaffold, linker to a chain's N/C-terminus via 3-aminomethyl-5-aminobenzamide
- % Inhibition at 100 µM, IGF1R-Y-P [1]: 16.2%
- % Inhibition at 100 µM, p42 [1]: 0.8%
- % Inhibition at 100 µM, p44 [1]: 46.1%
- IC50, PDGFR-Y-P [2]: 1.9 µM
- IC50, p42/Erk2: p42 [2]: 3.2 µM
- IC50, p42/Erk2: p44 [2]: 24 µM
- (IC50) Inhibition, p42 [3]: 44.1 µM per head; likely %
- (IC50) Inhibition, p44 [3]: 53.9 µM per head; likely %

B14: GFB-129 (designed binder)
peptide: GDDD
modifications: linker N-C via 3‑aminomethyl‑5‑aminobenzamide; also: loops on DPM-2 scaffold
- % Inhibition at 100 µM, IGF1R-Y-P [1]: 3.4%
- % Inhibition at 100 µM, p42 [1]: 2.8%
- % Inhibition at 100 µM, p44 [1]: 33.4%

B15: GFB-109 (designed binder)
peptide: GDLD
modifications: linker N-C via 3‑aminomethyl‑5‑aminobenzamide; also: four loops on But-Calix calix[4]arene scaffold
- % Inhibition at 100 µM, p42 [1]: 68.3%
- % Inhibition at 100 µM, p44 [1]: 79.7%
- IC50, PDGFR-Y-P [2]: 7.5 µM
- IC50, p42/Erk2 [2]: 15 µM
- (IC50) Inhibition, p42 [3]: 68.3 µM per head; likely %
- (IC50) Inhibition, p44 [3]: 79.7 µM per head; likely %

B16: GFB-137 (designed binder)
peptide 1: GDGY
peptide 2: GDDG
modifications: not fully specified; also: linker to a chain's N/C-terminus via 3-aminomethyl-5-aminobenzamide
- IC50, PDGFR-Y-P [2]: 0.4 µM
- IC50, p42/Erk2: p42 [2]: 2.9 µM
- (IC50) Inhibition, p44 [3]: 19.9 µM per head; likely %

B17: GFB-134 (designed binder)
peptide 1: GDGY
peptide 2: GDDY
modifications: also: 3 GDGY loops and 1 GDDY loop on But-Calix scaffold, linker to a chain's N/C-terminus via 3-aminomethyl-5-aminobenzamide
- % Inhibition at 100 µM, IGF1R-Y-P [1]: 16.8%
- % Inhibition at 100 µM, p42 [1]: 4.9%
- % Inhibition at 100 µM, p44 [1]: 53.5%
- IC50, PDGFR-Y-P [2]: 1.9 µM
- IC50, p42/Erk2: p42 [2]: 2.5 µM
- IC50, p42/Erk2: p44 [2]: 2.6 µM
- (IC50) Inhibition, p42 [3]: 54.8 µM per head; likely %
- (IC50) Inhibition, p44 [3]: 64.1 µM per head; likely %
